Assay: soluble on expression in E. coli; label from the status in PepcDB or PDB records

| Sequence | soluble on expression in E. coli |
| --- | --- |
| MTYGIVIVSHSPEIASGLKKLIREVAKNISLTAIGGLENGEIGTSFDRVMNAIEENEADNLLTFFDLGSARMNLDLVSEMTDKELTIFNVPLIEGAYTASALLEAGATFEAIKEQLEKMLIEKRSHHHHHH | soluble |
| MTYTLAILGCGVMGQALLSAIYNAPKAADETAAAFYPSKIITCNHDEPSAQQVTDLVETFDESPNGIKVESTYGHNVSAVEEASVVLLGTKPFLAEEVLNGVKSVIGGKLLISLAAGWTIDQLSQYTSTVCRVMTNTPAKYGYGCAVVSYSADVSKEQKPLVNELISQVGKYVELPEKNMDAATALVGSGPAFVLLMLESLMESGLKLGIPLQESKECAMKVLEGTVKMVEKSGAHPSVLKHQVCTPGGTTIAGLCVMEEKGVKSGIINGVEEAARVASQLGQKKK | soluble |
| MVAATSQNTFDSPRSPLYNFTMDIRPLSDVAGVILVGGRSRRMGRDKALIPLGGKPLVERVIDAFRPLFERILLVGDRGERFASYGLPVFPDIHPGSALGGLYTGLVRAGTPHVFVSACDVPWPDPRVIARLCSLREGFDVVVPRTVGGSEPLFAVYGTGCLPAMERMLREGNYRIYDFYPEVRTRYVEQAELADLVTPARTFVNVNTPEEFETIRNREEGMAIKAVSFVAKSGTGKTTLLEKVIAELKGRGYRIGVIKHDAHRFDIDHPGKDSHRLAAAGADTMLIASPEKLALVKKYDESPPLDELLATYFGDVDIVLTEGFKKSSLPKIEVHRMERSATLLCRGEEHDPTLVAVASDAALALDVPVFDLNNPAQVADFVERTFLAAGAALEHHHHHH | soluble |
| MVAKKWVYYFGGGNADGNKNMKELLGGKGANLAEMVNLGIPVPPGFTITTEACKTYQETETIPQEVADQVRENVSRVEKEMGAKFGDPANPLLFSVRSGAAASMPGMMDTVLNLGLNKVTVDAWVRRAPRLERFVYDSYRRFITMYADIVMQVGREDFEEALSRMKERRGTKFDTDLTASDLKELCDGYLELFELKTGCSFPQDPVMQLFAAIKAVFRSWGNPRATIYRRMNNITGLLGTAVNVQAMVFGNINDRSATGVAFSRSPSTGENFFFGEYLVNAQGEDVVAGIRTPQQINHSLSLRWAKAHGVGEEERRKRYPSMEEAMPENYRLLCDVRKRLENHYRDMQDLEFTVQDGRLWLLQCRNGKRTIHAAVRIAIDMVNEGLISREEAVLRIDPYQVDHLMHPNLEPGAEKANKPIGRGLAASPGAAVGQVVFDAESAKEWSGRGKKVIMVRLETSPEDLAGMDAACGILTARGGMTSHAAVVARGMGKCCVSGCGDMVIRGKSFKLNGSVFREGDYITIDGSKGLIYAGKLKLRSPDLKGSFQTILQWCQEMKRLGVRTNADTPADAAKARSFGAEGVGLCRTEHMFFEGSRINFIREMILADSASGRKAALDKLLPIQRADFVGILRAMRGLPVTIRLLDPPLHEFVPHDAAAQFELAQKLGMPAEKVRNRVNALHELNPMLGHRGCRLGITYPEIYNMQVRAIIEAAIAVSEEGSSVIPEIMVPLVGKKEELSLIREEVVKTAEAVITKSGKRVHYTVGTMIEVPRAAVTADSIAQKADFFSFGTNDLTQMGCGFSRDDAGPFLRHYGNLGIYAQDPFQSIDQEGIGELVRIAVTKGRRVKPMLKMGICGEHGGDPATIGFCHKVGLDYVSCSPFRVPVAIVAAAHASIKDRRAAMKARKGFAAKL | soluble |
| MVARNDNLKPFSERSVDEARELGRKGGKASGEVRRKKADLKRAISIVLSSEVPSSKMAKTLKEMGYENTNEMAMVLSMTQKAIKGDVKAASWISNIIQPAKVEHEVEMSVGVDEKRKVAEEYIRGLFNNDTGNSTEENN | not soluble |
| MVATAKYGTPVIDGEIDEIWNTTEEIETKAVAMGSLDKNATAKVRVLWDENYLYVLAIVKDPVLNKDNSNPWEQDSVEIFIDENNHKTGYYEDDDAQFRVNYMNEQTFGTGGSPARFKTAVKLIEGGYIVEAAIKWKTIKPTPNTVIGFNIQVNDANEKGQRVGIISWSDPTNNSWRDPSKFGNLRLIK | soluble |
| MVDLGFSLYPERYDVTKSKAYIDLCHSYGAKRLFMSLLQLAPADHQMFHCYAELIAYANQLGIRVIADVSPSFISQAGWSDQLIERAHAFGLAGLRLDEALPLAEIVTLTRNPFGLKIELNMSTDKQLLMSLLATDAERSNIIGCHNFYPHEFTGLSWQHFKDMSRFYHEHDIETAAFITAQSASEGPWLLAEGLPTVEDHRHLPIGLQVELMKAIGTIDNILISNQFISEEELAACTQALARPVTTIKVRPIIDLTEVEEQIIGYPHCYRGDVSDYVIRSTMPRLVYAQESIAPRDQSKEVKRGSIIIDNDRYHRYKGELQIALKNFTVSSKANVVAEVREDYLSLLDDLRPWQEFCLEIAPS | not soluble |
| MVDNTSLSFEQIADFCGLHPLEVRGIADGEVARDIRGADPIGNGQLNREELDRAQANPDYRMKALVSRHAELLKPAKKAPRYTPVSRRQDRPDAIAWFLRHHPEVTDAQISKILGTTKATIEQVRARTHWNAANIKPVDPVTLGLVGQLELDALVKKAAEKKAKDDLKKGIVPEDPTLRPASEAGQFEPEVEEEEEDFRAPRGDLKAEDVFGKSTGYVDEEDEDLEHHHHHH | soluble |
| MVDPVGFAEAWKAQFPDSEPPRMELRSVGDIEQELERCKASIRRLEQEVNQERFRMIYLQTLLAKEKKSYDRQRWGFRRAAQAPDGASEPRASASRPQPAPADGADPPPAEEPEARPDGEGSPGKARPGTARRPGAAASGERDDRGPPASVAALRSNFERIRKGHGQPGADAEKPFYVNVEFHHERGLVKVNDKEVSDRISSLGSQAMQMERKKSQHGAGSSVGDASRPPYRGRSSESSCGVDGDYEDAELNPRFLKDNLIDANGGSRPPWPPLEYQPYQSIYVGGMMEGEGKGPLLRSQSTSEQEKRLTWPRRSYSPRSFEDCGGGYTPDCSSNENLTSSEEDFSSGQSSRVSPSPTTYRMFRDKSRSPSQNSQQSFDSSSPPTPQCHKRHRHCPVVVSEATIVGVRKTGQIWPNDGEGAFHGDADGSFGTPPGYGCAADRAEEQRRHQDGLPYIDDSPSSSPHLSSKGRGSRDALVSGALESTKASELDLEKGLEMRKWVLSGILASEETYLSHLEALLLPMKPLKAAATTSQPVLTSQQIETIFFKVPELYEIHKEFYDGLFPRVQQWSHQQRVGDLFQKLASQLGVYRAFVDNYGVAMEMAEKCCQANAQFAEISENLRARSNKDAKDPTTKNSLETLLYKPVDRVTRSTLVLHDLLKHTPASHPDHPLLQDALRISQNFLSSINEEITPRRQSMTVKKGEYRQLLKDSFMVELVEGARKLRHVFLFTDLLLCTKLKKQSGGKTQQYDCKWYIPLTDLSFQMVDELEAVPNIPLVPDEELDALKIKISQIKSDIQREKRANKGSKATERLKKKLSEQESLLLLMSPSMAFRVHSRNGKSYTFLISSDYERAEWRENIREQQKKCFRSFSLTSVELQMLTNSCVKLQTVHSIPLTINKEDDESPGLYGFLNVIVHSATGFKQSSNLYCTLEVDSFGYFVNKAKTRVYRDTAEPNWNEEFEIELEGSQTLRILCYEKCYNKTKIPKEDGESTDRLMGKGQVQLDPQALQDRDWQRTVIAMNGIEVKLSVKFNSREFSLKRMPSRKQTGVFGVKIAVVTKRERSKVPYIVRQCVEEIERRGMEEVGIYRVSGVATDIQALKAAFDVNNKDVSVMMSEMDVNAIAGTLKLYFRELPEPLFTDEFYPNFAEGIALSDPVAKESCMLNLLLSLPEANLLTFLFLLDHLKRVAEKEAVNKMSLHNLATVFGPTLLRPSEKESKLPANPSQPITMTDSWSLEVMSQVQVLLYFLQLEAIPAPDSKRQSILFSTEV | soluble |
| MVERMERTMPTTAVRDATSSRRFQPGQAVVGRVERVEEMETEERAALVRAGGQLVRARLEAPLAVGRLYLFEIHERQGTIYWKAIPLSEPASAPSGEEAVRGWQKAWKLPDAALPVLRQALKAGAAATKEEIAALTEAVKETGQPDAAEDVLAHLFRRRLPFSSAVFRALWAAKTGVPLAEGLGKLKAAIAALSAHPAALKLIRAMEKFLSPPLSAYEAAVRLLLSGEEEAETARALLARLGLAPLPEDRRLALREAVQCRRFADIIRQLGLTDEEAFLERWAALDAAYQSGALPAAEAKLWAAARATRDPALSLFCWLRRAAVRLGLEDEAALVRVGKIEDLPSAPSLKRLLLRFLHESGSEGAKRAAEAILDQLDGMAIAAGGDGLIEHVWISFPLPLGGRSSDFAVCWQGRRKQGGPLDADYNRIVCCLTLEELGEVIVDMRVQRRIVHISIFHDDPRLAVAAARMAPLVKERFQAHGYALSGIDVKATRSAPPPPSVFLFADSCSEVDCQA | not soluble |
